Experimental data reported in patent US7494647 (Chugai, dated 2009).
Where two headings read alike, the source gives them in different places.

Key:
Test in all cases: cell ELISA on paraformaldehyde-fixed J82 cells; AP-conjugated goat anti-human IgGγ; absorbance 405/655 nm
[1] = molecular target: T1, human tissue factor (TF) on human bladder carcinoma cells J82 (human, UniProt P13726 33-295)
T1 construct: whole, on cells; also called the antigen; J82 cells
Protocol: (§1) Cell ELISA plates for measurement of antigen binding were prepared as follows. Cells used were human bladder carcinoma cells J82 (ATCC HTB-1). To 60 wells of a 96-well cell culture plate, 1 ×10^5 J82 cells were inoculated. This was cultured (RPMI1640 medium containing 10% fetal bovine serum (GIBCO)) for one day in a CO_2 incubator to allow the cells to be attached thereto. After discarding the culture liquid, each well was washed twice with 300 μl PBS. 100 μl of PBS containing 4% paraformaldehyde (hereinafter referred to as PFA/PBS) was added to each well, and placed on ice for 10 minutes to immobilize the cells.
(§2) PFA/PBS was discarded, and each well was washed twice with 300 μl of PBS, and then blocked with 250 μl of DB. The culture supernatant or purified antibody was serially diluted with DB, 100 μl of which was added to each well. After incubating at room temperature for 2 hours followed by washing with RB, 100 μl of alkaline phosphatase-conjugated goat anti-human IgGγ antibody (BioSource) diluted 1000-fold with DB was added. After incubating for 1 hour followed by washing with RB, the substrate solution was added, and then absorbance at 405/655 nm was measured using the Microplate Reader (Bio-Rad).

[2] = molecular target: T1, human tissue factor (TF) on human …; remark: listed apart in the source
Protocol: as §1, §2

[3] = molecular target: T1, human tissue factor (TF) on human …; remark: listed apart in the source
Protocol: as §1, §2

[4] = molecular target: T1, human tissue factor (TF) on human …; remark: listed apart in the source
Protocol: as §1, §2

T1 sequence (P13726 33-295): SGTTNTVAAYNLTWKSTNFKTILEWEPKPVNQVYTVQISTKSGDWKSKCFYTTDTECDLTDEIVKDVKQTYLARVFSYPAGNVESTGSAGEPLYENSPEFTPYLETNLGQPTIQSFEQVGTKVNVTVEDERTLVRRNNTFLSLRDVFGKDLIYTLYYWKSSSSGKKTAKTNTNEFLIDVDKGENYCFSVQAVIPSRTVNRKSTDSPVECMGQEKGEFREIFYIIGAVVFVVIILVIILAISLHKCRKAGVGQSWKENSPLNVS

B1: H chain humanized version b/L chain humanized version c antibody (antibody, V domains shown)
VH: QVQLLESGAVLARPGTSVKISCKASGFNIKDYYMHWVKQRPGQGLEWIGGNDPANGHSMYDPKFQGRVTITADTSTNTAYMELSSLRSEDTAIYYCARDSGYAMDYWGQGTLVTVSS
VL: DIQMTQSPSSLSASVGDRVTITCKASQDIKSFLSWYQQKPGKAPKLLIYYATSLADGVPSRFSGSGSGTDYTLTISSLQPEDIATYYCLQHGESPYTFGGGTKVEIK
notes: also called b-c
Which “EC50 (read off the curve)” value [1] does the source give for B1 here?
Its value is roughly 0.05 mg/L.

B2: H chain chimeric/L chain humanized version a antibody (antibody, IgG4, V domains shown)
VH: EVQLQQSGTNLVRPGALVKLSCKGSGFNIKDYYMHWVKQRPEQGLEWIGGNDPANGHSMYDPKFQGKASITADTSSNTAYLQLSSLTSEDTAVYFCARDSGYAMDYWGQGTSVTVSS
VL: DIQMTQSPSSLSASVGDRVTITCKASQDIKSFLSWYQQKPGKAPKLLIYYATSLADGVPSRFSGSGSGTDFTLTISSLQPEDFATYYCLQHGESPYTFGGGTKVEIK
notes: H chain V region is that of mouse ATR-5
With B2 as the binder, how does the “EC50 (read off the curve)” value [2] read?
Its value is roughly 0.03 mg/L.

B3: H chain chimeric/L chain humanized version c antibody (antibody, IgG4, V domains shown)
VH: EVQLQQSGTNLVRPGALVKLSCKGSGFNIKDYYMHWVKQRPEQGLEWIGGNDPANGHSMYDPKFQGKASITADTSSNTAYLQLSSLTSEDTAVYFCARDSGYAMDYWGQGTSVTVSS
VL: DIQMTQSPSSLSASVGDRVTITCKASQDIKSFLSWYQQKPGKAPKLLIYYATSLADGVPSRFSGSGSGTDYTLTISSLQPEDIATYYCLQHGESPYTFGGGTKVEIK
notes: H chain V region is that of mouse ATR-5; also called ch-c
How did the “EC50 (read off the curve)” value [3] turn out when B3 was run?
The value was roughly 0.07 mg/L.

B4: H chain humanized version a/L chain humanized version a antibody (antibody, IgG4, V domains shown)
VH: QVQLLESGAVLARPGTSVKISCKASGFNIKDYYMHWVKQRPGQGLEWIGGNDPANGHSMYDPKFQGRAKLTAATSASIAYLEFSSLTNEDSAVYYCARDSGYAMDYWGQGTLVTVSS
VL: DIQMTQSPSSLSASVGDRVTITCKASQDIKSFLSWYQQKPGKAPKLLIYYATSLADGVPSRFSGSGSGTDFTLTISSLQPEDFATYYCLQHGESPYTFGGGTKVEIK
Which “EC50 (read off the curve)” value [4] does the source give for B4 here?
The value was roughly 0.03 mg/L.
